Experiments:
Conditions in all cases: apparent, 10 μM FAD, 1 mM NADH, 500 nM HpaC, 20 mM KPi pH 7.0, 30 °C
O=C(O)/C=C/c1ccc(O)cc1 [1] = assay: purified protein; type: biochemical, Escherichia coli
From the text: (§1) HPLC of product and substrate; Michaelis-Menten fit on EcHpaB

O=C(O)/C=C/c1ccc(O)cc1 [2] = assay: HPLC of product and substrate; Michaelis-Menten fit; type: biochemical, Escherichia coli
From the text: as §1

O=C(O)/C=C/c1ccc(O)cc1 [3] = assay: purified protein; type: biochemical, Escherichia coli; remark: listed apart in the source
O=c1ccc2ccc(O)cc2o1 = assay: purified protein
purified protein [4] = substrate: O=C1C[C@@H](c2ccc(O)cc2)Oc2cc(O)cc(O)c21; assay: purified protein
purified protein [5] = substrate: Oc1ccc(/C=C/c2cc(O)cc(O)c2)cc1; assay: purified protein
purified protein [6] = substrate: O=c1ccc2ccc(O)cc2o1; assay: purified protein; remark: listed apart in the source
[7] = substrate: O=C(O)/C=C/c1ccc(O)cc1; assay: HPLC of product and substrate; Michaelis-Menten fit; type: biochemical, Escherichia coli; remark: listed apart in the source

EcHpaB (Escherichia coli; A211D/E216M/F208A/G207M/G209M/G215A/N217V/S210V)
Km (O=C(O)/C=C/c1ccc(O)cc1 [1]): 210.8 ± 85.3 µM | kcat (O=C(O)/C=C/c1ccc(O)cc1 [1]): 0.512 ± 0.0617 s⁻¹ | kcat/Km (O=C(O)/C=C/c1ccc(O)cc1 [1]): 2400 M⁻¹ s⁻¹

EcHpaB (Escherichia coli; E216M/G215A/N217V)
Km (O=C(O)/C=C/c1ccc(O)cc1 [2]): 235.6 ± 40.2 µM | kcat (O=C(O)/C=C/c1ccc(O)cc1 [2]): 0.497 ± 0.0217 s⁻¹ | kcat/Km (O=C(O)/C=C/c1ccc(O)cc1 [2]): 2100 M⁻¹ s⁻¹

EcHpaB (Escherichia coli; A211D/F208A/G207M/G209M/S210V)
Km (O=C(O)/C=C/c1ccc(O)cc1 [3]): 387.9 ± 32.7 µM | kcat (O=C(O)/C=C/c1ccc(O)cc1 [3]): 0.183 ± 0.00667 s⁻¹ | kcat/Km (O=C(O)/C=C/c1ccc(O)cc1 [3]): 470 M⁻¹ s⁻¹

EcHpaB (Escherichia coli; A211D/E216M/F208A/G207M/G209M/G215A/M214G/N217V/Q212G/S210V/V213S)
Km (O=C(O)/C=C/c1ccc(O)cc1 [2]): 235.3 ± 52.5 µM | kcat (O=C(O)/C=C/c1ccc(O)cc1 [2]): 0.375 ± 0.0217 s⁻¹ | kcat/Km (O=C(O)/C=C/c1ccc(O)cc1 [2]): 1560 M⁻¹ s⁻¹

EcHpaB (Escherichia coli; A211D/E216S/F208S/M214S/N217D/Q212L/V213G)
Km (O=c1ccc2ccc(O)cc2o1): 176.9 ± 35.9 µM | kcat (O=c1ccc2ccc(O)cc2o1): 0.348 s⁻¹ | kcat/Km (O=c1ccc2ccc(O)cc2o1): 2000 M⁻¹ s⁻¹ | Km (O=C(O)/C=C/c1ccc(O)cc1 [3]): 132.1 ± 29.1 µM | kcat (O=C(O)/C=C/c1ccc(O)cc1 [3]): 0.365 ± 0.0167 s⁻¹ | kcat/Km (O=C(O)/C=C/c1ccc(O)cc1 [3]): 2800 M⁻¹ s⁻¹

B1: EcHpaB (Escherichia coli) (protein)
chain: MKPEDFRASTQRPFTGEEYLKSLQDGREIYIYGERVKDVTTHPAFRNAAASVAQLYDALHKPEMQDSLCWNTDTGSGGYTHKFFRVAKSADDLRHERDAIAEWSRLSYGWMGRTPDYKAAFGCALGGTPGFYGQFEQNARNWYTRIQETGLYFNHAIVNPPIDRHLPTDKVKDVYIKLEKETDAGIIVSGAKVVATNSALTHYNMIGFGSAQVMGENPDFALMFVAPMDADGVKLISRASYEMVAGATGSPYDYPLSSRFDENDAILVMDNVLIPWENVLLYRDFDRCRRWTMEGGFARMYPLQACVRLAVKLDFITALLKKSLECTGTLEFRGVQADLGEVVAWRNTFWALSDSMCSEATPWVNGAYLPDHAALQTYRVLAPMAYAKIKNIIERNVTSGLIYLPSSARDLNNPQIDQYLAKYVRGSNGMDHVQRIKILKLMWDAIGSEFGGRHELYEINYSGSQDEIRLQCLRQAQSSGNMDKMMAMVDRCLSEYDQNGWTVPHLHNNDDINMLDKLLK
notes: (α2)2 tetramer; expressed in E. coli BW25113 (F') from pZE12-luc, purified; assayed with separate purified HpaC reductase
Km (purified protein [4]): 349.8 ± 77.6 µM | kcat (purified protein [4]): 0.15 s⁻¹ | kcat/Km (purified protein [4]): 400 M⁻¹ s⁻¹ | Km (purified protein [5]): 174.3 ± 17.9 µM | kcat (purified protein [5]): 0.437 s⁻¹ | kcat/Km (purified protein [5]): 2500 M⁻¹ s⁻¹ | Km (purified protein [6]): 217.0 ± 60.6 µM | kcat (purified protein [6]): 0.418 s⁻¹ | kcat/Km (purified protein [6]): 1900 M⁻¹ s⁻¹ | Km [7]: 137.6 ± 21.0 µM | kcat [7]: 0.387 ± 0.0117 s⁻¹ | kcat/Km [7]: 2800 M⁻¹ s⁻¹

From article PMC6506529, “Structural Insights into Catalytic Versatility of the Flavin-dependent Hydroxylase (HpaB) from Escherichia coli” (Scientific Reports, 2019)
